# In patent US20050281829A1, “Fc chimeric proteins with anti-HIV drugs” (priority 2003, published 2005):
# Read-outs that look alike come from different tables or passages of the source.
# Legend:
# [1] = monkeys, single intravenous bolus; FIG. 8A/8B
# Method: The animals were sedated with ketamine (≈10 mg/kg) prior to dosing. The hair from the dosing area were clipped, cleansed with alcohol, and air-dried prior to delivering the dose. This was followed by a 3 mL saline flush. Samples were obtained from the femoral vein at indicated times. The blood was allowed to clot and the serum was separated and frozen until analysis.
# [2] = neonatal rats, oral (gavage); FIG. 9
# Source text: The blood was allowed to clot and the serum was separated and frozen until analysis.
# [3] = biological target: human serum albumin (Homo sapiens, UniProt P02768); conditions: SPR, FIG. 11
# Method: A BIACORE 3000 instrument (Biacore AB Uppsala, Sweden) was used and all binding interactions were performed at 25° C. A carboxymethyl-modified dextran (CM5) sensor chip (Biacore. AB Uppsala, Sweden) was used for analysis. HAS (Albuminar) (Aventis Bridgewater, N.J.) was diluted to 100 μg/mL in 10 mM sodium acetate (pH 4.5) and immobilized to one flowcell of the sensor chip, using amine coupling as described. […] Final immobilization level was approximately 8500 Resonance Units (RU). A “mock-immobilized” surface using a separate flowcell was created using the same procedure in the absence of HSA and served as a reference for the binding studies.
# Proteins or peptides (analyte) were diluted in HBS-N buffer (10 mM HEPES, pH 7.4; 150 mM NaCl) and injected over the HSA and reference surfaces for 3 minutes at a rate of 20 μL/min. After a 35 second dissociation phase, the surface was regenerated by a 30 second pulse of 10 mM glycine (pH 2.0) at a flow rate of 60 μL/min.
# The sensorgrams (Response Units versus time) generated for the mock-coated flowcell were automatically subtracted from the HSA-coated sensorgrams. Response at equilibrium (Req) was measured 30 seconds before the end of the injection phase and divided by the molecular weight of the analyte (Frostell-Karlsson et al. 2000, J. Med. Chem. 43:1986).
Substance,serum half life [1],serum half life [2] [h],binding to human serum albumin (in words) [3],"binding to human serum albumin relative to binding of either FcT20 or T20Fc ([3]; 25° C., Req divided by molecular weight)"
Fc-T20: Recombinant chimeric protein: human Fc linked via a glycine peptide linker to T20 at the Fc C terminus (SEQ ID NO:4),greater than 40 hours,23,reduced binding,–
enfuvirtide,–,–,–,more than 3 fold
